Experimental data: article PMC7473855

Target: SARS-CoV-2 prefusion-stabilized spike ectodomain with a C-terminal T4 fibritin trimerization motif (SARS-CoV-2) (UniProt P0DTC2)
Experiment: cryo-EM structure

Ty1 nanobody (VHH), sequence (VHH): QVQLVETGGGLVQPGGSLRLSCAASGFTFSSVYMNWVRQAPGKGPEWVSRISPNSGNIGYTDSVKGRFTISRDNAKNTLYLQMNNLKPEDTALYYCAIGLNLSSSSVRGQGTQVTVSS

With Ty1 nanobody (VHH) the stoichiometry N (Ty1 per spike trimer) was 3.
